Article PMC6755802 (2019)

Target: T1, IL-2Rβ ectodomain (SPR, Figure 4A) (human, UniProt P14784 27-240)
T1 chain: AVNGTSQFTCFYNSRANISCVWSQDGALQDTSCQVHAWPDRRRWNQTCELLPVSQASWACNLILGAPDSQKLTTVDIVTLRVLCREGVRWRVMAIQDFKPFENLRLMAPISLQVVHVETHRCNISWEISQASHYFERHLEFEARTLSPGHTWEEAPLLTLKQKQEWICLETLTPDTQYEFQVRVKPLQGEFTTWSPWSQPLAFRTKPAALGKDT
Experiment: SPR

Kd: 3.3 nM
B1: Super-2 (ligand)
chain: APTSSSTKKTQLQLEHLLLDLQMILNGINNYKNPKLTRMLTFKFYMPKKATELKHLQCLEEELKPLEEVLNLAQSKNFHFDPRDVVSNINVFVLELKGSETTFMCEYADETATIVEFLNRWITFCQSIISTLT
